This data set is described as follows: label from the status in PepcDB records.
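Further: failed if final PepcDB status was selected cloned or expressed and not failed if soluble or beyond.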

Regarding “MATRMTTIRRQTKMAIGQRIKYFRNRIGMTQKQLGEQLGFKGKTSDVRMAQYESEARVPKIDLVKQMSQIFDINTHALTVPDIDTHIGLMHTLFALEDMYGLKVKNVDGQPHLWLDSSISAPSSSVDEMFRAWMEQADKLENGEISKEEYDEWRYKYPELDTYQKRAKVPSQELSDYLVKELTKKEK”, the protein production result is “failed”.
In the case of “MATRRLTDAFLLLRNNSIQNRQLLAEQVSSHITSSPLHSRSIAALADDRMALVSGISLDPEAAIGVTKRPPPKWVDGVDEIQYDVGRIKQKMKELASLHDKHLNRPTLDDSSEEEHAIEITTQEITQLFHRCQRAVQALPSRARACSEQEGRLLGNVVASLAQALQELSTSFRHAQSGYLKRMKNREERSQHFFDTSVPLMDDGDDNTLYHRGFTEDQLVLVEQNTLMVEEREREIRQIVQSISDLNEIFRDLGAMIVEQGTVLDRIDYNVEQSCIKTEDGLKQLHKAEQYQKKNRKMLVILILFVIIIVLIVVLVGVKSR” it was “failed”.
Under “MATRTQARGAVVELLYAFESGNEEIKKIASSMLEEKKIKNNQLAFALSLFNGVLEKINEIDALIEPHLKDWDFKRLGSMEKAILRLGAYEIGFTPTQNPIIINECIELGKLYAEPNTPKFLNAILDSLSKKLTQKPLN” stands “failed”.
In the case of “MATVTKAPKKQIQFADDMQEFTKFPTKTGRRSLSRSISQSSTDSYSSAASYTDSSDDEVSPREKQQTNSKGSSNFCVKNIKQAEFGRREIEIAEQDMSALISLRKRAQGEKPLAGAKIVGCTHITAQTAVLIETLCALGAQCRWSACNIYSTQNEVAAALAEAGVAVFAWKGESEDDFWWCIDRCVNMDGWQANMILDDGGDLTHWVYKKYPNVFKKIRGIVEESVTGVHRLYQLSKAGKLCVPAMNVNDSVTKQKFDNLYCCRESILDGLKRTTDVMFGGKQVVVCGYGEVGKGCCAALKALGAIVYITEIDPICALQACMDGFRVVKLNEVIRQVDVVITCTGNKNVVTREHLDRMKNSCIVCNMGHSNTEIDVTSLRTPELTWERVRSQVDHVIWPDGKRVVLLAEGRLLNLSCSTVPTFVLSITATTQALALIELYNAPEGRYKQDVYLLPKKMDEYVASLHLPSFDAHLTELTDDQAKYLGLNKNGPFKPNYYRY” it was “failed”.
In the case of “MAVAAAKYTTGFWINTIVIILIIAYLVYQLYLYWKRGKISTQLDDDEFRAGMRKAQVIDVREKKEFDAGHILGARNIPYSQMKNRTQELRSDLPVYLYDQGRTFSGRAAMLLSKKGFTQLYILKNGYQRWTGKTKKTKY”, the protein production result is reported as “failed”.
Take “MAVALLGNRDGQAFLATLFDLARRGHVTLRHDREDQAFGTTDVVRLETHPAPNDLSDFERRLVDTLGEYETLDDFWSDTRSFRSDVMSDVRGVLFERGWMENHTVRSGLLLGGALVALLGGFAAVVTGDSALRFYLLFGGMGVSLGGFIAAVRQYTWTEDGARRAMALRAYLDHEKSEIERLRETSPARAAERLVDALPWLLLHDEVSRAWIEETKEALDAADEVPELPDGFVSLVETEGSARAPVAAFLPVVTVMGAVESSSAGAVGAAGASGAAGAAGGGAGAAGAA”: the protein production result is reported as “failed”.
Under “MAVDMFIKIGDVKGESKDKTHAEEIDVLAWSWGMSQSGSMHMGGGGGAGKVNVQDLSFTKYIDKSTPNLMMACSSGKHYPQAKLTIRKAGGENQVEYLIITLKEVLVSSVSTGGSGGEDRLTENVTLNFAQVQVDYQPQKADGAKDGGPVKYGWNIRQNVQA” stands “not failed”; under “MAVEEVIEMQGLSLDPTSHRVMAGEEPLEMGPTEFKLLHFFMTHPERVYSREQLLNHVWGTNVYVEDRTVDVHIRRLRKALEPGGHDRMVQTVRGTGYRFSTRF”, “not failed”.
In the case of “MAVKHASAPKAYINITGLGFAKLTKEGAELKYSDITKTRGLQKIGVETGGELKTAYADGGPIESGNTDGEGKISLQMHAFPKEIRKIVFNEDYDEDGVYEEKQGKQNNYVAVWFRQERRDGTFRTVLLPKVMFTNPKIDGETAEKDWDFSSEEVEGEALFPLVDNKKSVRKYIFDSANMTNHGGDGEKGEEAFLKKILGEEYTGNVTEDNEETLLEHHHHHH”, the protein production entry is listed as “not failed”.
As for “MAVLGQLGFMIAFLSGGVAAGHFGLLTERRTDILTTLVFTVALPALIFRSTYDRPLQEIISPALLGGFWVIIALTITLGWLVHRRLESADRRSVSVVQSYHSNMGFLGLPLVAATMGSEATAVASVILGIGAVTHVPVTVFLLVRINGSDASLLSECRKLVTNPVLIALAAGITASVLSLSVPESLISALGPPAELALPVALLCIGATLDTDLPVSDLQKTVSVVGLKVLWMPALAWLVYSSLSMDTTALGAAVVMLGTPTAVSTYVYTTELGGDAAFASLNVFTSTVVSIGTLSLLVWLFT”, the protein production result is on record as “failed”.
Under “MAVNVYSTSVTSENLSRHDMLAWVNDSLHLNYTKIEQLCSGAAYCQFMDMLFPGCVHLRKVKFQAKLEHEYIHNFKVLQAAFKKMGVDKIIPVEKLVKGKFQDNFEFIQWFKKFFDANYDGKDYNPLLARQGQDVAPPPNPGDQIF” stands “not failed”; under “MAVPPVEMYSGSFWNRMRKPLPLRTQVIRFTVVFVIVSFILAVALQITHERMPDPKVTKPLPDLGFELLTKVPGMYVLADCCIGFLNILSVFTAFKLYLLHRHCVGSGEPELPCNIPGVSRFFLSVWLCKENCRIELRNIHTIAWIRFITSYALLLLFRSAVIVMTSLPAPDDLCQDPPKIENPVKNVILTVLTAGGGSIHCGDLMYSGHTVILTLHLMFHWIYGAMVHWSFRPVVTVVAIFGYYCIVASRFHYTDDVLVAIYLTIATFIAVGHNADGAPWQLQLFIRWWPCCGANSREVTEDSQPVMVAFKSEELDEMNGVLEGRQKKHGGVGDGESLMFKCGAYVVSHHHHHH”, “not failed”.
As to “MAVPTELDGGSVKETAAEEESRVLAPGAAPFGNFPHYSRFHPPEQRLRLLPPELLRQLFPESPENGPILGLDVGCNSGDLSVALYKHFLSLPDGETCSDASREFRLLCCDIDPVLVKRAEKECPFPDALTFITLDFMNQRTRKVLLSSFLSQFGRSVFDIGFCMSITMWIHLNHGDHGLWEFLAHLSSLCHYLLVEPQPWKCYRAAARRLRKLGLHDFDHFHSLAIRGDMPNQIVQILTQDHGMELICCFGNTSWDRSLLLFRAKQTIETHPIPESLIEKGKEKNRLSFQKQ”, the protein production entry is listed as “failed”.
Take “MAVRFASLGSGSDGNALLVESTDGTTSTRILLDCGFGIRETVRRLERLGCAPASLDAILVTHEHGDHIGSAYAFAAKYSVPVWTSHGTYRATASLRGADRAAVRFCRADDAFSIGDLRILPYTVPHDAREPLQFIFDDGARRLGVLTDAGMSTEYLCGHLTGLHAFVLECNHDREMLANSAYPWSLKQRIGGDFGHLANDIAAAILARVRHDGLHTVVAAHLSKQNNTPELAAAAIASALGVPAGDVPIADQEAGLGWQAV”: the protein production entry is “failed”.
Take “MAVSLPNSFLQISPCVPSLQLRKPVMAAVKGGKQSVRRSSNTVVQITCRKKELHPEFHEDAKVYCNGELVMTTGGTKKEYVVDVWSGNHPFYLGNRSALMVDADQVEKFRKRFAGLSEIMEIPVLKGEIIMPTKKSKGPKGKKK”: the protein production entry is on record as “failed”.
Under “MAVSNDITFADYFYQWYEVNKLPHVSESTKRHYESAYKHIKDHFRHKLLKDIKRTEYQKFLNEYGLTHSYETIRKLNSYIRNAFDDAIHEGYVIKNPTYKAELHASVPAKTELEHHHHHH” stands “not failed”; under “MAVTLRLTNSLAFSSHPLTSSVLFRGSKSIGTITKIASTIRTVKMAAFAGSDSETTSSTSRVIDSHLHIWASPQEAETYPYFPGQEPTLTGDVNFLLKNMEEARVDGALIVQPINHKFDHSLVTRSRPF”, “failed”; under “MAVYTDITEDELRNFLTQYDVGSLTSYKGIAEGVENSNFLLHTTKDPLILTLYEKRVEKNDLPFFLGLMQHLAAKGLSCPLPLPRKDGELLGELSGRPAALISFLEGMWLRKPEAKHCREVGKALAAMHLASEGFEIKRPNALSVDGWKVLWDKSEERADEVEKGLREEIRPEIDYLAAHWPKDLPAGVIHADLFQDNVFFLGDELSGLIDFYFACNDLLAYDVSICLNAWCFEKDGAYNVTKGKALLEGYQSVRPLSEAELEALPLLSRGSALRFFLTRLYDWLTTPAGALVVKKDPLEYLRKLRFHRTIANVAEYGLAGE”, “not failed”.
In the case of “MAYDDMGFPVSVSGPARRVVSLVPSLTEAIAHTRREALVGATDWCTHPAGLDVARVRGTKNPDRAAIAALRPDLVIANKEENRELDVRMLRAAGIPVWVTVIQTVPQALDSLTRLFTEALCWPLPDWLVEARRLWSHPLPPVRARVAIPVWRDPWMVVGSATFTGDLARRLGLANVFADHPERYPKVALADIDRDDVDLVVLPDEPYAFTPQDGPEAFRCAPTVLVSGRLLTWYGPSLLHAKEGLAALVQ”, the protein production entry is given as “failed”.
As to “MAYDIERYLDIRGAGDPTYGPTGELAFTLGTTGTAQVWALGAPGAWPTQLTFHDERVQWASFSPTREELAYGMDTGGDEFTQLHRVSGDGSEDVQLTAFPDAKHDWGGWSHDGDRIAYTANRRDASRFDVYVQGRDEAGANADCVRVGDTFDLPSVVGWSPSDDRLLVVDTHSNFDQDVAVLDVDTGEITRATAGLDADTRFSWVAWAPDGGGVYVTTDHDADTRYLGLLDPETGAISRVADGGDWPIEAVVTAHDAGRLAYVRNRDGYSELTIADAAGTTLTEQPTPELPDGVIRGLSWGPDGDTLAVVVSAATENPNVFVVDVATGAATQWTNAATAGIPKSTFREPELVRYETFDGREIPALFTRPDGDGPHPVIVDFHGGPEGQRRPSFLSLRQYFVDNGYAVFEPNVRGSSGYGATYMNLDNVRNRMDAVADGKAGVEWLTARTDIDADRVVAYGGSYGGFMVLASLTEYPELWAAGVDIVGIANFVTFLENTGDWRREHRESEYGSLDADREFLESISPTNNADRIRAPLLVLHGANDPRVPVGEAERIVEQASAHVPVEKHVFDDEGHGFSKRANKQAAYRAVVDFLDDHA”, the protein production result is “failed”.
Under “MAYDLWYWDGIPGRGEFVRLALEAGKIPYRDRAREPGEDMLDDMRRRRDTPPFAPPYLVADGMTIAQTANILLFLGVEHGLAPPDRAGRLWVNQLQLTIADLTAEAHDVHHPVAAGLYYEDQQDVALRRAADFRETRMPKFMQYFEQALDRPGGWLTDMGRWSYADLSLYHVVEGLLHAFPRRMRTLVHRYPRLMALHARVAELPELRGYLASDRRLPFGDGIFRHYPELDGA” stands “not failed”.
On to “MAYDNRAVVRKVLLITLLLNLFVMGLKAFVGYLTGSLSLLADALHSVTDSANNILGLFASSFSSPYPDREHPYGHHKFEAVGALGIAAFLGIACFEILQGAIERILKGGAPVRISPPELWLLLIVLGVNIFVAFYERNEGKRVGSQILIADATHTMSDVWVTISVIFGLIGVWLGYQWLDIVLAFPVALLVFWSGWSVLKENLPWLVDQMAIAPEAIHAIAVAVPGVINCHDIASRGVLGRQIFMEMHLIVDAPDVETAHRITEEVERRLEERFSPVRIIIHVEPPNYESEQISFETGSK”, for which the protein production entry is given as “failed”.
Turning to “MAYVKERIYESMFIIAPNVPEEERENLVERVKKIIEERVKGKIDKVERMGMRKFAYEIKKFNEGDYTVIYFRCDGQNLQELENFYRVTPEIIRWQTFRRFDLEKKERKAQREKAAAEATESSEGGSED”, the protein production result is on record as “not failed”.
Under “MCAFNGAALTALGISHSALLAHSPQGCEYLVNNAFASQECDYMETMTLCTKLCVDEIVHGGEDILARTIREVKDLPISALFVLSACGPEIVGDDIVGVCEALQPEVKFRLVPIESAGFRGSQYDGIDIAMDTILKKLVKDDVEKIPGSVCLEHHHHHH” stands “failed”.

These data come from a protein production outcome set (Wang et al. 2014).
